Series [1] in a line: folding stability dG unfold (combined trypsin and chymotrypsin); higher = more stable. A digest of the protocol:
(§1)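 Mini-proteins designed to be under 80 residues and free of cysteine were carried in a PA-tagged cDNA display construct and digested with trypsin and with chymotrypsin. Each protease was applied at 11 threefold-diluted concentrations, alongside a no-protease condition, before sequencing. K50 came from Bayesian fitting of the sequencing counts, and unfolding free energy was obtained by comparing it with a sequence-predicted unfolded-state K50 and a shared folded-state K50, for each protease separately or for both together. Designs were retained only if their AlphaFold2 dimer inter-PAE exceeded 15.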

Series [2] in a line: folding stability dG unfold from trypsin proteolysis; higher = more stable. A digest of the protocol: as §1
The nature of series [3]: folding stability dG unfold from chymotrypsin proteolysis; higher = more stable. The method in brief:
as §1

This note sets out measurements from the supplement of paper PMC12764529.

± gives the half width of the 95% confidence interval.

Take “SAGGSAGGSAGGMKTIVFTTLSPEEAQALADELKAKGVDVEVTYEPVPVTPRPLPLNRLSAGGSAGGSAGGS [r10_361_JUSTAS]”: the entries for the “folding stability dG unfold” value in series [1], in series [2] and in series [3] were 2.57 ± 0.097 kcal/mol, 2.04 ± 0.059 kcal/mol and 3.06 ± 0.063 kcal/mol, respectively.
For “SAGGSAGGSAGGMKVIKIEDVEKVKAEAKKNGIKVTYKKENDGEIIAYIEKIPKSIKNKSAGGSAGGSAGGS [r10_218_JUSTAS]” the same measures were -0.00327 ± 0.23 kcal/mol, -0.832 ± 0.34 kcal/mol and 0.449 ± 0.14 kcal/mol.
Taken in the same sequence, the figures for “SAGGSAGGSAGGMKVIPFESLEEAREYIKANPDENVLLEFPDALLELTKPDDIKKIEKKPSAGGSAGGSAGG [r7_532_JUSTAS]” were 0.28 ± 0.084 kcal/mol, -0.0919 ± 0.12 kcal/mol and 0.36 ± 0.12 kcal/mol.
For “SAGGSAGGSAGGMKVLVIFEDNKIPRVVSEEELKKIPLPFKIIPLGPDPEEAKKILEKSSAGGSAGGSAGGS [r10_419_TrMRF]” the same measures were 0.434 ± 0.27 kcal/mol, 0.616 ± 0.13 kcal/mol and 0.34 ± 0.39 kcal/mol.
For “SAGGSAGGSAGGMLFHFEIKDPNSDKEYEVLVEKPPSGKVLVTILKDNKEEVKVLPLELFSAGGSAGGSAGG [r11_952_JUSTAS]”, the “folding stability dG unfold” value is -0.29 ± 0.31 kcal/mol in series [1], 0.109 ± 0.17 kcal/mol in series [2] and -0.393 ± 0.42 kcal/mol in series [3].
Taken in the same sequence, the figures for “SAGGSAGGSAGGMLILVEVNGEKRLLEADSLEDALAKLPPGATVTRVEIFEVEEVELPESAGGSAGGSAGGS [r10_13_TrROS_Hall]” were 2.15 ± 0.068 kcal/mol, 2.36 ± 0.067 kcal/mol and 2 ± 0.059 kcal/mol.
For “SAGGSAGGSAGGMLLSPEEAEKLAAELKAKENVTIKVTPEPSPGKVKVEIIKTKGPKLVSAGGSAGGSAGGS [r10_402_JUSTAS]” the same measures were 0.418 ± 0.16 kcal/mol, -0.0172 ± 0.17 kcal/mol and 0.54 ± 0.061 kcal/mol.
Taken in the same sequence, the figures for “SAGGSAGGSAGGMLTAVFTTPGNVRRLVPFSSEEEARALAEAEGVEVEFLDPAEAARLLSAGGSAGGSAGGS [r10_66_JUSTAS]” were -0.476 ± 0.14 kcal/mol, -0.569 ± 0.17 kcal/mol and -0.497 ± 0.25 kcal/mol.
As to “SAGGSAGGSAGGMLVRIPRGDKGFVLEIETDGVRTVEEFDGTEEEIREYAEKNGFEILESAGGSAGGSAGGS [r10_506_JUSTAS]”, the “folding stability dG unfold” value in series [1] turned out to be 0.892 ± 0.071 kcal/mol; in series [2], 0.771 ± 0.017 kcal/mol; in series [3], 0.883 ± 0.051 kcal/mol.
Taken in the same sequence, the figures for “SAGGSAGGSAGGMMKITIEVDGKKIEITLPPGAELKFDKEKKEIYIRNKKTNEILKLKIKSAGGSAGGSAGG [r7_7_TrROS_Hall]” were 2.21 ± 0.11 kcal/mol, 1.9 ± 0.048 kcal/mol and 2.35 ± 0.041 kcal/mol.
For “SAGGSAGGSAGGMMRIRIKIYNVETGEWKEIEIEVPESVKEITLEIELPEGWRIVEIEVESAGGSAGGSAGG [r7_687_TrROS_Hall]” the same measures were 5.32 ± 0.14 kcal/mol, 5.39 ± 0.52 kcal/mol and 5.22 ± 0.087 kcal/mol.
“SAGGSAGGSAGGMMVNLKVTREKLPNGKYRVTFTLPNGEEVVVEVESEEEAEAAAKEIAASAGGSAGGSAGG [r11_955_JUSTAS]”: the “folding stability dG unfold” value in series [1] was 3.95 ± 0.084 kcal/mol; in series [2], 3.2 ± 0.053 kcal/mol; in series [3], 4.23 ± 0.052 kcal/mol.
For “SAGGSAGGSAGGMNPVSKVTKHSGPNGQVTETTTYFDPASGKTTVTYTDLVTGTTSTISTSAGGSAGGSAGG [r11_1063_JUSTAS]” the same measures were -0.823 ± 0.17 kcal/mol, -0.579 ± 0.047 kcal/mol and -1.02 ± 0.41 kcal/mol.
Taken in the same sequence, the figures for “SAGGSAGGSAGGMPADEKVTTSPEIVTLPNGTRVVVTKSTSPDPSVSSTSVTVLPPNVPPSAGGSAGGSAGG [r11_338_JUSTAS]” were 1.05 ± 0.066 kcal/mol, 0.393 ± 0.029 kcal/mol and 1.38 ± 0.027 kcal/mol.
For “SAGGSAGGSAGGMPIPVTITVSDPATGTTKVVKTVLVTSPEKLEEVISKLPEGKKYTVVESAGGSAGGSAGG [r7_307_JUSTAS]” the same measures were -0.393 ± 0.29 kcal/mol, -0.415 ± 0.098 kcal/mol and -0.224 ± 0.22 kcal/mol.
As to “SAGGSAGGSAGGMPLTLTSETVTVERDPTSNNVVTTTTTTYKLPNGTLVTVTTTTTSPTTSAGGSAGGSAGG [r7_267_JUSTAS]”, the “folding stability dG unfold” value in series [1] was 2.33 ± 0.06 kcal/mol; in series [2], 2.38 ± 0.1 kcal/mol; in series [3], 2.21 ± 0.034 kcal/mol.
“SAGGSAGGSAGGMPTTATITLPGGETLTVPVPVDPSTGTVSEEEIRALVGPEFEFEILGGSAGGSAGGSAGG [r7_492_JUSTAS]”: the “folding stability dG unfold” value in series [1] turned out to be 1.24 ± 0.068 kcal/mol; in series [2] it was 0.779 ± 0.04 kcal/mol; in series [3], 1.49 ± 0.062 kcal/mol.
As to “SAGGSAGGSAGGMPVTLNVTVKTKDPDGVAATETVTLTFSSPEEALAAIKAAYPNSTIESAGGSAGGSAGGS [r10_1248_JUSTAS]”, the results for the “folding stability dG unfold” value in series [1], in series [2] and in series [3] were 1.15 ± 0.12 kcal/mol, 0.995 ± 0.057 kcal/mol and 1.33 ± 0.061 kcal/mol, respectively.
For “SAGGSAGGSAGGMRLVRITTEDGRTITAPVGETITITRPDGSKVKITRVEVFELPPEDLSAGGSAGGSAGGS [r10_20_TrROS_Hall]” the same measures were 1.23 ± 0.041 kcal/mol, 0.744 ± 0.021 kcal/mol and 1.51 ± 0.025 kcal/mol.
With “SAGGSAGGSAGGMRRVTIWFPIPEDEEITFKLPGNGVEVEIEPDKGNGFFRITVYLPDGSAGGSAGGSAGGS [r10_1138_TrROS]”, the “folding stability dG unfold” value in series [1] was 1.94 ± 0.098 kcal/mol; in series [2], 1.42 ± 0.036 kcal/mol; in series [3] it was 2.07 ± 0.12 kcal/mol.
Taken in the same sequence, the figures for “SAGGSAGGSAGGMTIEINGKKYEIVEVKEEKGKLTLKIKVNGKLLEIEIDKDKNEIKIYPSAGGSAGGSAGG [r7_553_TrROS_Hall]” were 3.91 ± 0.14 kcal/mol, 3.44 ± 0.14 kcal/mol and 4.05 ± 0.1 kcal/mol.
For “SAGGSAGGSAGGMTITVVTEESPGPFKTVTVTTTTPLPNGTLATTTTTTFLPVSPDEPVSAGGSAGGSAGGS [r10_241_JUSTAS]” the same measures were 0.983 ± 0.08 kcal/mol, 1.52 ± 0.044 kcal/mol and 0.208 ± 0.27 kcal/mol.
For “SAGGSAGGSAGGMTLEEVKKALEELGIKEENQTVTIELEDGSKVKITVKDGKVVLEVEPSAGGSAGGSAGGS [r10_604_TrROS_Hall]” the same measures were 2.54 ± 0.13 kcal/mol, 2.81 ± 0.18 kcal/mol and 2.19 ± 0.1 kcal/mol.
On to “SAGGSAGGSAGGMTLRIRVRNKDGKVLEIEVEVDEDKTPEEVARELAKKLNVEKVEIFPSAGGSAGGSAGGS [r10_400_TrROS_Hall]”, for which the entries for the “folding stability dG unfold” value in series [1], in series [2] and in series [3] were 2.28 ± 0.13 kcal/mol, 2.2 ± 0.07 kcal/mol and 2.32 ± 0.038 kcal/mol, respectively.
For “SAGGSAGGSAGGMTPIEVTVELEEPTRRTTRRFTFTSPEEVEAYLKALPASWRVTRVELRSAGGSAGGSAGG [r17_410_JUSTAS]” the same measures were 1.66 ± 0.075 kcal/mol, 1.58 ± 0.038 kcal/mol and 1.82 ± 0.15 kcal/mol.
As to “SAGGSAGGSAGGMTTVTLTLTTELEVKDPEGKLHRETVTVTVTVPVPPSTLTDTTDLVSSAGGSAGGSAGGS [r10_168_JUSTAS]”, the “folding stability dG unfold” value in series [1] worked out at 1.91 ± 0.17 kcal/mol; in series [2], 1.82 ± 0.1 kcal/mol; in series [3], 2.12 ± 0.054 kcal/mol.
Taken in the same sequence, the figures for “SAGGSAGGSAGGMTTVTTLETRPLPDGTTVTREVVTDENGTVVSTTVSRVSPEGVVTAESAGGSAGGSAGGS [r10_1014_JUSTAS]” were 0.623 ± 0.055 kcal/mol, -0.0113 ± 0.05 kcal/mol and 0.97 ± 0.025 kcal/mol.
For “SAGGSAGGSAGGMVIRLEDGRTLVFETREEAEEAAKALAEELGLKEVKVEIVEVPLEELPSAGGSAGGSAGG [r7_839_TrROS_Hall]”, the “folding stability dG unfold” value amounted to 2.4 ± 0.045 kcal/mol in series [1], 2.11 ± 0.073 kcal/mol in series [2] and 2.6 ± 0.032 kcal/mol in series [3].
For “SAGGSAGGSAGGMVITVPKENLKELIDALRKEGKARIVSVEEKDGLVTITVELEDEELESAGGSAGGSAGGS [r10_695_TrROS_Hall]” the same measures were 2.95 ± 0.11 kcal/mol, 3.24 ± 0.18 kcal/mol and 2.28 ± 0.075 kcal/mol.
Taken in the same sequence, the figures for “SAGGSAGGSAGGMVIVKVHLPNGNTLTFVFPGMTLDEIREELASQGGKIKEIEIVPMENSAGGSAGGSAGGS [r10_572_TrROS]” were 2.28 ± 0.079 kcal/mol, 2.17 ± 0.07 kcal/mol and 2.323 ± 0.02 kcal/mol.
Taken in the same sequence, the figures for “SAGGSAGGSAGGMVKIKLKNGKWYEAKVTEIDEDGNVVVELPNGKKFTVPAKDLEIEVLPSAGGSAGGSAGG [r7_823_TrROS_Hall]” were 3.69 ± 0.11 kcal/mol, 3.77 ± 0.29 kcal/mol and 3.7 ± 0.097 kcal/mol.
Turning to “SAGGSAGGSAGGMVTTLEVTVSPDGVITVTTVTTDAAGTPVTTTTTTTVLGPGGPVLAVSAGGSAGGSAGGS [r10_484_JUSTAS]”, the “folding stability dG unfold” value is 2.03 ± 0.12 kcal/mol in series [1], 2.05 ± 0.13 kcal/mol in series [2] and 2 ± 0.044 kcal/mol in series [3].
For “SAGGSAGGSAGGMVVRITTKDGRTITFPPGTSLEELRSLPADEITRVEVVEVEPVRVVEPSAGGSAGGSAGG [r7_190_TrROS_Hall]” the same measures were 1.75 ± 0.082 kcal/mol, 1.45 ± 0.028 kcal/mol and 1.97 ± 0.051 kcal/mol.
Take “SAGGSAGGSAGGMVVRVTKNGTSTEIIVDSEEEAKELLKPLFPDDSEVEIEFVSEEELSSAGGSAGGSAGGS [r10_1167_JUSTAS]”: the results for the “folding stability dG unfold” value in series [1], in series [2] and in series [3] were 0.718 ± 0.12 kcal/mol, 0.0397 ± 0.07 kcal/mol and 0.963 ± 0.065 kcal/mol, respectively.
Taken in the same sequence, the figures for “SAGGSAGGSAGGMYFIRIKPPNGEELVILIPPGDEIKIKDADGRPWKITDVYPMPPEQFSAGGSAGGSAGGS [r10_422_TrROS]” were 0.0506 ± 0.41 kcal/mol, -0.17 ± 0.27 kcal/mol and -0.118 ± 0.73 kcal/mol.
